The experiment has as its target wild-type monomeric SARS-CoV-2 S receptor-binding domain (RBD) (SARS-CoV-2 (Wuhan-Hu-1), UniProt P0DTC2). Kind of experiment: BLI.

B1: CV30 IgG (antibody, V domains shown)
VH: QVQLVESGGGLIQPGGSLRLSCAASGVIVSSNYMSWVRQAPGKGLEWVSVIYSGGSTYYADSVKGRFTISRDNSKNTLYLQMNSLRAEDTAVYYCARDLDVSGGMDVWGQGTTVTVSS
VL: not shown
Molecule B1 gave a Kd of 8.8 nM.

The values are drawn from paper PMC8276696 (2021).
